The data set deals with the molecule itself. The data set is described as follows: cryo-EM structure; detergent-purified protein (DDM/cholate), apo, inward-facing state; C2 symmetry.

B1: BmrA WT, homodimeric multidrug ABC transporter from Bacillus subtilis (natural protein)
chain: MPTKKQKSKSKLKPFFALVRRTNPSYGKLAFALALSVVTTLVSLLIPLLTKQLVDGFSMSNLSGTQIGLIALVFFVQAGLSAYATYALNYNGQKIISGLRELLWKKLIKLPVSYFDTNASGETVSRVTNDTMVVKELITTHISGFITGIISVIGSLTILFIMNWKLTLLVLVVVPLAALILVPIGRKMFSISRETQDETARFTGLLNQILPEIRLVKASNAEDVEYGRGKMGISSLFKLGVREAKVQSLVGPLISLVLMAALVAVIGYGGMQVSSGELTAGALVAFILYLFQIIMPMGQITTFFTQLQKSIGATERMIEILAEEEEDTVTGKQIENAHLPIQLDRVSFGYKPDQLILKEVSAVIEAGKVTAIVGPSGGGKTTLFKLLERFYSPTAGTIRLGDEPVDTYSLESWREHIGYVSQESPLMSGTIRENICYGLERDVTDAEIEKAAEMAYALNFIKELPNQFDTEVGERGIMLSGGQRQRIAIARALLRNPSILMLDEATSSLDSQSEKSVQQALEVLMEGRTTIVIAHRLSTVVDADQLLFVEKGEITGRGTHHELMASHGLYRDFAEQQLKMNADLENKAG
notes: BmrA, multidrug ABC transporter, Bacillus subtilis; hexa histidine-tagged pET23 BmrA; Residues 578 onward could not be modelled in PDB 8QOE; also called WT BmrA; WT protein; source: E. coli C41(DE3), purified in DDM/cholate (Ni-NTA)
B1: the binding result is listed as “binds”.

For the origin of these results see article PMC10821409, “The transport activity of the multidrug ABC transporter BmrA does not require a wide separation of the nucleotide-binding domains” (The Journal of Biological Chemistry, 2023).
